Reference: patent US8058228B2, “Leptin peptide antagonists” (Boston Biomedical Research Institute, priority 2004, dated 2011)

Target: T1, IL-1R tl (Homo sapiens, UniProt P14778)
T1 construct: endogenous in cells; host or cells: Ishikawa cells
T1 sequence (P14778 18-569): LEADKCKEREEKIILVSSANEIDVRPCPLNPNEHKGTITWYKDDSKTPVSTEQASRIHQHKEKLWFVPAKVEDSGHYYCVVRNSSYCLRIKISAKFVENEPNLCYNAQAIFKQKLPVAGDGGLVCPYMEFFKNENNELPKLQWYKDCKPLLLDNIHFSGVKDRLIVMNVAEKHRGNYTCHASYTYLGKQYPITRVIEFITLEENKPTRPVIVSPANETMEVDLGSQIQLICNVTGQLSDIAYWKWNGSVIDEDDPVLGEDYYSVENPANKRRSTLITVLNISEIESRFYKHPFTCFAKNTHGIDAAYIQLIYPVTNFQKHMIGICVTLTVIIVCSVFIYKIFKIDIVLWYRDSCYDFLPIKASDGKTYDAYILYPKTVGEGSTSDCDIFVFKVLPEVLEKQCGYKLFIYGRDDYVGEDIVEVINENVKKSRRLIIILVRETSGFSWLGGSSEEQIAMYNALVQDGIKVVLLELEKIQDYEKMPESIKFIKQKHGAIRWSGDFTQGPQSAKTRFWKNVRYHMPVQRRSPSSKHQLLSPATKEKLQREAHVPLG
Assay: IL-1β and IL-1R tl inhibitors: effects on LIF-R levels in Ishikawa cells (Western blot)
Type: cell-based
Procedure: Primary human endometrial cells (ESC and EEC) were cultured for 5-9 days in DMEM-F12 medium containing 5% fetal bovine serum (FBS), 5 μg/ml insulin, 1% amphopthericin B, 100 μg/ml streptomycin and 100 U/ml penicillin until they were 80% confluent. Two types of endometrial epithelial cell lines, HES (originally derived from a benign proliferative endometrium) and Ishikawa (human endometrial epithelial adenocarcinoma, ECACC 9832301, Wiltshire, England) were cultured under the same conditions described above. The cells were washed twice with 100 mM phosphate saline buffer (PBS), pH 7.2 and cultured for additional 2 days in the same medium but without FBS (basal medium). Cells were washed as described before and cultured in basal medium containing leptin (0, 3, 10 or 62 nM) or IL-1β (0.6, 3 and 10 nM). […]
Endometrial cells were washed with ice-cold PBS and lysed by homogenization on ice with lysis buffer A [[…] Tris, pH 7.4, containing 137 nM NaCl, 2 mM EDTA, 10% glycerol, 50 mM β-glycerophosphate, 1% Nonidet P-40 and a mixture of proteases and phosphatase inhibitors composed of 100 μM antipain, 0.1 mg/ml trypsin inhibitor, protease inhibitor cocktail 1:50 (Sigma), 50 nM NaF, 2 mM phenyl-methylsulfonyl fluoride, and 2 mM sodium orthovanadate]. […] Protein concentrations were determined using the Bradford protein assay (BioRad Laboratories Inc., Hercules, Calif.). […]

effect on leptin-induced increase in LIF-R levels (IL-1Ra 1000 pg/ml or anti IL-1R tl antibody 20 μg/ml)	LIF-R levels after IL-1β (IL-1β 3 and 10 nM, dose dependent)	Substance
partially blocked	–	IL-1Ra: human recombinant IL-1 receptor antagonist (R&D Systems), inhibitor of IL-1R tl
–	increased the levels of LIF-R	IL-1β: human recombinant IL-1β (R&D Systems)
